Assay results from patent US5670477A, “Method to enhance permeability of the blood/brain blood/nerve bariers to therapeutic agents” (Poduslo; Joseph F., priority 1995, dated 1997).
Several values for one entry are separate records, joined by “and”; a condition that tells them apart may be missing. Equal entries are not always repeated.

Tests used:
[1] = PS and Vp of the blood-nerve barrier, radioiodinated I.V. bolus; assay type: in vivo, rat (Sprague-Dawley)
Method: (§1) Free radioactive iodine was separated from the radiolabeled conjugates and agents by dialysis against 0.2M NaI.
(§2) After the final blood sample was collected, the animal was sacrificed, the brain and meninges removed, and the brain dissected into the cortex, caudateputamen (neostriatum), hippocampus, thalamus, brain stem, and cerebellum. The sciatic nerve was also rapidly removed and desheathed. Tissue was lyophilized, and dry weights were determined with a microbalance and converted to respective wet weights with wet weightry weight ratios previously determined for the desheathed rat sciatic nerve and the various brain regions. […] Statistical evaluations were performed using the t-test with significance accepted at the P<0.05 level.

[2] = plasma half-life from plasma clearance curves after I.V. bolus; conditions: for t1 (plasma half-life): Table 5, n = 6
Method: Animals and Reagents. Male Sprague-Dawley rats (24-weeks-old, 460-500 g) were obtained from Bio Lab (St. Paul) and were used to determine the PS and Vp measurements. All animals were kept for a minimum of 3 days under standard housing conditions and feeding schedules prior to the experiments. […] Insulin (Mr =6000) was obtained as humulin RU-100 from Eli Lily. […] Affinity purified human IgG was obtained from Accurate Chemicals (Mr =150,000). […] Plasma half-lives were determined from plasma clearance curves for all the proteins using the standard exponential decay equation in In Plot Scientific Graphics (Graph Pad Software).
The experimental protocol employed was based on the methods of Ohno et al. Am. […] Over the next 30 or 60 minutes, serial blood samples were collected from the brachial artery to generate a plasma washout curve.

[3] = PS and Vp of the blood-brain barrier, radioiodinated I.V. bolus; assay type: in vivo, rat (Sprague-Dawley)
Method: as §1, §2

[4] = isoelectric focusing (Coomassie blue); assay type: physicochemical; conditions: Coomassie blue stain
Method: Protein samples were solubilized in SDS under reducing conditions with 2-mercaptoethanol followed by electrophoresis and staining with Coomassie blue. Pharmacia low molecular weight calibration kit was used for the protein standards. The 40% Bio-Lyte 3/10 ampholyte from Bio-Rad was used for isoelectric focusing with an acrylamide monomer concentration of 25% T and 3% C. Polymerization time was 15 minutes, with 5 minutes allowed for sample diffusion. Electrophoresis time was 45 minutes with increasing voltage to a maximum voltage of 450 volts for the last 15 minutes. IEF standards were obtained from Bio-Rad and contained nine natural proteins with the isoelectic points ranging from 4.45 to 9.6 and were visualized with Coomassie blue.

[5] = system: choline acetyltransferase (ChAT); assay: choline acetyltransferase (ChAT) activity in brain regions after parenteral administration; assay type: in vivo, mouse (BALB/cJ)
Method: Adult BALB/cJ mice were used. The injection site was alternated on a daily basis between I.M. (thigh) and I.V. injection (tail vein), and the vehicle consisted of 1.5 mg/ml of BSA in 0.9% NaCl. The amount of NGF or PUT-NGF injected was 15 μg/day/animal for a duration of 14 days. Three groups of animals (n=7) were injected with either vehicle alone, NGF, and PUT-NGF. At the end of the experiment, the brains were removed and dissected into five regions which included the septum, hippocampus, nucleus basalis (substantia innominata), caudate-putamen (neostriatum), and cortex and stored at -70° C. The septum was dissected from the hippocampus at the fornix and continued into the basal forebrain.
Subsequently, a radiochemical assay using [1-^14 C] acetyl-CoA was performed according to the method of Fonnum. Fonnum, "A rapid radiochemical method for the determination of choline acetyltransferase", J. Neurochem., 24, 407 (1975). Data were expressed as cpm/μg protein and are given as mean ± SEM. Protein concentration was determined by the BCA procedure (Smith et al., "Measurement of protein using bicinchoninic acid", Anal. Biochem., 150, 76 (1985)) with the Pierce assay kit using bovine serum albumin as a standard. Statistical analysis was by the unpaired t-test (two-tailed) with significance accepted as P<0.05.

[6] = 15 μg/day/animal, 14 days, x ± SEM, n = 7

| Molecule | PS of the BNB ([1]; nerve / endoneurium) | PS of the BNB ([1]; nerve, x ± SEM) | Vp (residual plasma volume) of the BNB ([1]; nerve, x ± SEM) | PS of the BBB ([3]; brain stem, x ± SEM) | Vp of the BBB ([3]; brain stem, x ± SEM) | PS of the BBB ([3]; caudate-putamen, x ± SEM) | Vp of the BBB ([3]; caudate-putamen, x ± SEM) | PS of the BBB ([3]; cerebellum, x ± SEM) | Vp of the BBB ([3]; cerebellum, x ± SEM) | PS of the BBB ([3]; cortex, x ± SEM) | Vp of the BBB ([3]; cortex, x ± SEM) | Vp of the BBB ([3]; hippocampus, x ± SEM) | PS of the BBB ([3]; thalamus, x ± SEM) | pI (isoelectric point) [4] | t1 (plasma half-life) ([2]; x ± SEM) [min] | PS of the BBB ([3]; hippocampus, x ± SEM) | Vp of the BBB ([3]; thalamus, x ± SEM) | also measured |
| --- | --- | --- | --- | --- | --- | --- | --- | --- | --- | --- | --- | --- | --- | --- | --- | --- | --- | --- |
| INS: Insulin (Mr =6000) obtained as humulin RU-100 from Eli Lily [reference compound] | 3.32e-05 mL/g/s | 33.19 ± 2.05 ml/g/sec × 10^6 | 5.05 ± 0.87 µL/g | 22.62 ± 3.35 ml/sec × 10^6 | 12.35 ± 0.99 µL/g | 16.88 ± 1.79 ml/sec × 10^6 | 6.08 ± 0.30 µL/g | 20.12 ± 2.78 ml/sec × 10^6 | 10.56 ± 0.96 µL/g | 15.78 ± 2.45 ml/sec × 10^6 | 6.44 ± 0.49 µL/g | 7.04 ± 0.68 µL/g | 18.42 ± 2.41 ml/sec × 10^6 | – | – | – | – | t1/2 (plasma half-life) ([2]; Table 4, x ± SEM, n = 5): 1.18 ± 0.09 min |
| SOD: superoxide dismutase isolated from bovine erythrocytes, monomeric molecular weight 16,250 daltons | 2.24 10^-6 mL/g/sec | 1.79 ± 0.12 ml/g/sec × 10^6 and 2.24 ± 0.22 ml/g/sec × 10^6 | 1.87 ± 0.10 µL/g and 2.63 ± 0.22 µL/g | 3.19 ± 0.13 ml/g/sec × 10^6 and 3.13 ± 0.14 ml/g/sec × 10^6 | 13.77 ± 2.10 µL/g and 16.26 ± 1.22 µL/g | 1.52 ± 0.07 ml/g/sec × 10^6 and 1.78 ± 0.11 ml/g/sec × 10^6 | 5.62 ± 0.23 µL/g and 5.76 ± 0.40 µL/g | 2.94 ± 0.14 ml/g/sec × 10^6 and 2.69 ± 0.11 ml/g/sec × 10^6 | 10.20 ± 0.89 µL/g and 14.61 ± 1.09 µL/g | 1.81 ± 0.06 ml/g/sec × 10^6 and 1.80 ± 0.09 ml/g/sec × 10^6 | 6.13 ± 0.34 µL/g and 5.77 ± 0.34 µL/g | 7.94 ± 0.25 µL/g and 7.26 ± 0.77 µL/g | 2.61 ± 0.15 ml/g/sec × 10^6 and 2.71 ± 0.20 ml/g/sec × 10^6 | 4.95 | 3.64 ± 0.21 | 1.98 ± 0.08 ml/g/sec × 10^6 and 2.15 ± 0.01 ml/g/sec × 10^6 | 9.73 ± 0.43 µL/g and 12.83 ± 1.97 µL/g | PS of the BNB ([1]; nerve): 1.79 ± 0.12 10^-6 mL/g/sec; PS of the BNB relative to native albumin ([1]; nerve, albumin compared from Poduslo et al. 1994): approximately 22 fold; PS of the BBB ([3]; brain stem): 3.13e-06 mL/g/s; PS of the BBB relative to native albumin ([3]; brain stem): 54 fold; PS of the BBB ([3]; caudate-putamen): approximately 1.8 ×10^-6 ml/sec; PS of the BBB ([3]; cortex): approximately 1.8 ×10^-6 ml/sec; PS of the BBB relative to native albumin ([3]; cortex): 12 fold |
| SPD-SOD: SOD modified with spermidine using water-soluble carbodiimide at pH 4.7 | 2.41e-05 mL/g/s | 24.1 ± 1.23 ml/g/sec × 10^6 | 3.03 ± 0.35 µL/g | 36.85 ± 1.70 ml/g/sec × 10^6 | 13.94 ± 1.29 µL/g | 32.65 ± 2.03 ml/g/sec × 10^6 | 8.23 ± 0.40 µL/g | 37.28 ± 1.01 ml/g/sec × 10^6 | 12.59 ± 0.90 µL/g | 25.00 ± 0.90 ml/g/sec × 10^6 | 7.10 ± 0.31 µL/g | 7.73 ± 0.58 µL/g | 34.35 ± 1.42 ml/g/sec × 10^6 | – | 0.75 ± 0.05 | 28.75 ± 1.39 ml/g/sec × 10^6 | 11.23 ± 0.63 µL/g | PS of the BNB, RI vs. native protein ([1]; nerve): 10.8; PS of the BNB, relative increase vs. native protein ([1]; nerve): 10.8 fold; Vp of the BNB, RI vs. native protein ([1]; nerve): 1.2; decrease of plasma half-life versus native protein ([2]; fold less than native protein): 4.9 fold; PS of the BBB, RI vs. native protein ([3]; brain stem): 11.8; Vp of the BBB, RI vs. native protein ([3]; brain stem): 1.0; PS of the BBB, RI vs. native protein ([3]; caudate-putamen): 18.3; Vp of the BBB, RI vs. native protein ([3]; caudate-putamen): 1.4; PS of the BBB, RI vs. native protein ([3]; cerebellum): 13.9; Vp of the BBB, RI vs. native protein ([3]; cerebellum): 1.2; PS of the BBB, RI vs. native protein ([3]; cortex): 13.9; Vp of the BBB, RI vs. native protein ([3]; cortex): 1.2; PS of the BBB, RI vs. native protein ([3]; hippocampus): 13.4; Vp of the BBB, RI vs. native protein ([3]; hippocampus): 1.1; PS of the BBB, RI vs. native protein ([3]; thalamus): 12.7; Vp of the BBB, RI vs. native protein ([3]; thalamus): 1.2 |
| NGF: Ultrapure 2.5S nerve growth factor (printed 2.55 NGF) from Harlan Bioproducts (protein, UniProt P01139 122-241, looked up) Beta-nerve growth factor: SSTHPVFHMGEFSVCDSVSVWVGDKTTATDIKGKEVTVLAEVNINNSVFRQYFFETKCRASNPVESGCRGIDSKHWNSYCTTTHTFVKALTTDEKQAAWRFIRIDTACVCVLSRKATRRG | – | 1.74 ± 0.15 ml/g/sec × 10^6 | 1.53 ± 0.12 µL/g | 3.38 ± 0.09 ml/g/sec × 10^6 | 16.60 ± 1.01 µL/g | 1.64 ± 0.04 ml/g/sec × 10^6 | 5.78 ± 0.42 µL/g | 2.93 ± 0.10 ml/g/sec × 10^6 | 11.54 ± 0.71 µL/g | 1.91 ± 0.07 ml/g/sec × 10^6 | 7.19 ± 0.20 µL/g | 8.56 ± 0.21 µL/g | 2.79 ± 0.09 ml/g/sec × 10^6 | major band with an isoelectric point less than cytochrome c | – | 2.30 ± 0.10 ml/g/sec × 10^6 | 11.65 ± 0.81 µL/g | ChAT activity, caudate-putamen [5, 6]: 559 ± 47 cpm/μg protein; ChAT activity, cortex [5, 6]: 294 ± 9 cpm/μg protein; ChAT activity, hippocampus [5, 6]: 236 ± 17 cpm/μg protein; ChAT activity, nucleus basalis [5, 6]: 109 ± 15 cpm/μg protein; ChAT activity, septum [5, 6]: 443 ± 65 cpm/μg protein; ChAT activity versus comparator, in words ([5]; NGF vs vehicle: five brain regions, PUT-NGF vs NGF: hippocampus, caudate-putamen, cortex): no significant difference; ChAT activity, NGF vs. Vehicle % Increase ([5]; caudate-putamen): 18.4%; ChAT activity, NGF vs. Vehicle % Increase ([5]; cortex): 4.6%; ChAT activity, NGF vs. Vehicle % Increase ([5]; hippocampus): 0.4%; ChAT activity, NGF vs. Vehicle % Increase ([5]; nucleus basalis): 12.4%; ChAT activity, NGF vs. Vehicle % Increase ([5]; septum): 0.2% |
